T1: 1:1 binary complex of the ectodomains of FGFR1c and Klotho (human; murine, UniProt O35082 35-982)
T1 construct: range 35-982; also called FGFR1c-Klotho complex; binary FGFR1c-Klotho complex; not shown: C-terminal FLAG tag
T1 sequence 1: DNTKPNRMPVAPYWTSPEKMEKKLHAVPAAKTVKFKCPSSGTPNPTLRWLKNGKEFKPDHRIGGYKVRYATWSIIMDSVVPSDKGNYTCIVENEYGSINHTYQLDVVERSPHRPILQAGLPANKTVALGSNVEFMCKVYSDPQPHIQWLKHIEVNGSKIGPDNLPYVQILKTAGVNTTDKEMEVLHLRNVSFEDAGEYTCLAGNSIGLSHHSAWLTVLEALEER
T1 sequence 2: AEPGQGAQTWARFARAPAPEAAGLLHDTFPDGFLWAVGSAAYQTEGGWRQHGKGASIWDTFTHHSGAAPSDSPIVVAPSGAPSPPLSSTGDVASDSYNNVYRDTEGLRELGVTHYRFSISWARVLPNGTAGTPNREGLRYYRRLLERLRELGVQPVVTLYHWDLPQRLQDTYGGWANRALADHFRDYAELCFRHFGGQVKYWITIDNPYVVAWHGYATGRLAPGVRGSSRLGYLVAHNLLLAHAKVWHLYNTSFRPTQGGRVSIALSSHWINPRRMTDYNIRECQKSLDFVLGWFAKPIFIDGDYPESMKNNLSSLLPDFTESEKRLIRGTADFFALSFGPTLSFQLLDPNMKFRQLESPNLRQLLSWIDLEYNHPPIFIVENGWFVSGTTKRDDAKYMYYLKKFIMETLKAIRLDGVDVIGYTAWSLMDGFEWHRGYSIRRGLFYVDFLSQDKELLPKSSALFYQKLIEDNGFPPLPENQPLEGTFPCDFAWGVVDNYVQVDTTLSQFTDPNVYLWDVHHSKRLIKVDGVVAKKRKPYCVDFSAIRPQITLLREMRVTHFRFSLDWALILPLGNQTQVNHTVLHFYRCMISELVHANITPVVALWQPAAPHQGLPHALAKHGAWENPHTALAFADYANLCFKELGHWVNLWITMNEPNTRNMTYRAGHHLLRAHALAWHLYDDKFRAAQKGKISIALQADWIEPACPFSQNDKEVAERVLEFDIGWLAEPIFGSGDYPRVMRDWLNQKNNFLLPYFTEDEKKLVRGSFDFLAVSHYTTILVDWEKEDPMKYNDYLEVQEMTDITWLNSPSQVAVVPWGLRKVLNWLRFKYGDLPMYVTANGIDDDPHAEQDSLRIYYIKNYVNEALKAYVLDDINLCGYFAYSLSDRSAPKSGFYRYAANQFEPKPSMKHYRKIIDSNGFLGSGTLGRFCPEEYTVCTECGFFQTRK

B1: N-terminally hexahistidine-tagged 72-amino acid C-terminal tail of human FGF23 (S180 to I251), FGF23^180-251 (peptide)
peptide: SAEDDSERDPLNVLKPRARMTPAPASCSQELPSAEDNSPMASDPLGVVRGGRVNTHAGGTGPEGCRPFAKFI
notes: Expressed in E. coli; also called FGF23 C-terminal tail peptide; C-terminal tail of FGF23; not shown: N-terminal hexahistidine tag (six His)
B2: FGF23 C-terminal region peptide (S180 to S205), FGF23^180-205 (peptide)
peptide: SAEDDSERDPLNVLKPRARMTPAPAS
notes: Made by solid phase synthesis (GenScript)

Molecular target: T1, 1:1 binary complex of the ectodomains …
Experiment: SPR competition; FGF23^28-251 immobilized; reference FGF23^28-251 in solution
From the text: To analyze FGF23 binding to the binary FGFR1c-Klotho complex, FGF23²⁸⁻²⁵¹ was coupled to a chip, and increasing concentrations of 1:1 complex of the ectodomains of FGFR1c and Klotho in HBS-EP buffer were passed over the chip. To measure binding of the C-terminal tail of FGF23 to the binary FGFR1c-Klotho complex, FGF23¹⁸⁰⁻²⁵¹ was immobilized on a chip, and increasing concentrations of 1:1 complex of the ectodomains of FGFR1c and Klotho in HBS-EP buffer were passed over the chip. To examine whether the C-terminal tail of FGF23 can compete with full-length FGF23 for binding to the binary FGFR1c-Klotho complex, FGF23²⁸⁻²⁵¹ was immobilized on a chip. Increasing concentrations of FGF23¹⁸⁰⁻²⁵¹ were mixed with a fixed concentration of 1:1 complex of the ectodomains of FGFR1c and Klotho in HBS-EP buffer, and the mixtures were passed over the chip. As a control, competition of FGF23 in solution with immobilized FGF23 for binding to the binary FGFR1c-Klotho complex was studied. Increasing concentrations of FGF23²⁸⁻²⁵¹ were mixed with a fixed concentration of 1:1 complex of the ectodomains of FGFR1c and Klotho in HBS-EP buffer, and the mixtures were passed over the FGF23 chip. […] As a control, competition of FGF23 C-terminal tail peptide in solution with immobilized FGF23 C-terminal tail peptide for binding to the binary FGFR1c-Klotho complex was analyzed. […]

| Binder | rightward shift of the dose-response curve compared to full-length FGF23 [fold] |
| --- | --- |
| B1 | ~3 |
| B2 | ~6 |
